Experimental data published in patent publication US20240350615A1 (BEIJING WANTAI BIOLOGICAL PHARMACY ENTERPRISE, published 2024).

Molecular target: T1, polypeptide 2C01 (human rhinovirus (W10 (HRV-C15)))
T1 construct: synthetic peptide coated on the ELISA plate; also called 2C (aa 151-163)
T1 peptide: YSLPPDPKYFDGY
Assay: indirect ELISA, peptide coated 1 ug/well, 9A5 at 2 ug/mL

B1: monoclonal antibody 9A5 (antibody, V domains shown)
VH: EVQLVESGGDLVKPGGSLKLSCAASGFTFSIYGMSWVRQTPDKRLEWVATISSAGIYTYYPDSVKGRFTISRDNAKNTLYLQMSSLKSEDTAMYYCARHGYGLFDVWGAGTTVTVSS
VL: not shown
notes: also called anti-C149-2C01 mouse monoclonal antibody
binding result: binds
